Results on eleven molecules are retold here after patent publication US20090175860A1 (Novartis, published 2009).

Substitutions are numbered along the chain they refer to.

A word on the Kd: it is the free concentration of one partner at which half of the binding sites on the other are occupied at equilibrium, for simple one-to-one binding.

B1: 04682 (parental anti-cMet Fab antibody) (Fab, V domains shown)
VH: QVQLVQSGAEVKKPGESLKISCKGSGYSFTNYGIAWVRQMPGKGLEWMGIIYPSDSYTNYSPSFQGQVTISADKSISTAYLQWSSLKASDTAMYYCARMSYDYQHQAPSMDSWGQGTLVTVSS
VL: DIVLTQPPSVSGAPGQRVTISCSGSSSNIGSNYVIWYQQLPGTAPKLLIYDDTNRPSGVPDRFSGSKSGTSASLAITGLQSEDEADYYCSTYDNYQAGWVFGGGTKLTVLG
notes: carries two C-terminal tags (FLAG and 6xHis)
B2: 04687 (parental anti-cMet Fab antibody) (Fab, V domains shown)
VH: QVQLVQSGAEVKKPGSSVKVSCKASGGTFSSYAISWVRQAPGQGLEWMGGIDPFGTANYAQKFQGRVTITADESTSTAYMELSSLRSEDTAVYYCARVYQDVWGQGTLVTVSS
VL: DIVMTQSPDSLAVSLGERATINCRSSQSILYGINNNFLGWYQQKPGQPPKLLIYWASTRESGVPDRFSGSGSGTDFTLTISSLQAEDVAVYYCQQYYNHPHTFGQGTKVEIKR
notes: as for B1
B3: 04536 (parental anti-cMet Fab antibody) (Fab, V domains shown)
VH: QVQLVQSGAEVKKPGASVKVSCKASGYTFTGYYMNWVRQAPGQGLEWMGIINPWTGNTNYAQKFQGRVTMTRDTSISTAYMELSSLRSEDTAVYYCARDPGFFYYTPSDLWGQGTLVTVSS
VL: DIELTQPPSVSVAPGQTARISCSGDSIGNKYVHWYQQKPGQAPVLVIYADSDRPSGIPERFSGSNSGNTATLTISGTQAEDEADYYCQAYDSSMLRVFGGGTKLTVLG
notes: as for B1
B4: 04537 (parental anti-cMet Fab antibody) (Fab, V domains shown)
VH: QVQLVQSGAEVKKPGESLKISCKGSGYSFSNYWIGWVRQMPGKGLEWMGFIFPDTSYTRYSPSFQGQVTISADKSISTAYLQWSSLKASDTAMYYCARVKLITDYWGQGTLVTVSS
VL: DIELTQPPSVSVAPGQTARISCSGDSLRSYFVSWYQQKPGQAPVLVIYDDDDRPSGIPERFSGSNSGNTATLTISGTQAEDEADYYCASWDTLSDVEVFGGGTKLTVLG
notes: as for B1
B5: 04541 (parental anti-cMet Fab antibody) (Fab, V domains shown)
VH: QVQLQESGPGLVKPGETLSLTCTVSGGSISSSSYYWNWIRQAPGKGLEWIGEIYFGWTYYNPSLKGRVTISVDTSKNQFSLKLSSVTAEDTAVYYCARGYEFHGYTTFDYWGQGTLVTVSS
VL: DIELTQPPSVSVAPGQTARISCSGDNIGSYYVYWYQQKPGQAPVLVIYDDNDRPSGIPERFSGSNSGNTATLTISGTQAEDEADYYCQSYDFPSIVFGGGTKLTVLG
notes: as for B1
B6: 05097 in IgG format (antibody, V domains shown)
VH: B2 VH
VL: DIVMTQSPDSLAVSLGERATINCRSSQSILYGINNNFLGWYQQKPGQPPKLLIYWASTRESGVPDRFSGSGSGTDFTLTISSLQAEDVAVYYCQQYAFGWTFGQGTKVEIKR
B7: 05098 in IgG format (antibody, V domains shown)
VH: B2 VH
VL: B2 VL with Q94L, Y97S, N98D, H99E, H101W
B8: 05185 in IgG format (antibody, V domains shown)
VH: B2 VH with F54I, G55M, T56G, A57T, N58E
VL: B2 VL with Y97A, N98Y, H99E, H101N
B9: 05097 (affinity-improved anti-cMet Fab antibody) (Fab, V domains shown)
VH: B2 VH
VL: B6 VL
B10: 05185 (affinity-improved anti-cMet Fab antibody) (Fab, V domains shown)
VH: B2 VH with F54I, G55M, T56G, A57T, N58E
VL: B2 VL with Y97A, N98Y, H99E, H101N
B11: 05098 (affinity-improved anti-cMet Fab antibody) (Fab, V domains shown)
VH: B2 VH
VL: B2 VL with Q94L, Y97S, N98D, H99E, H101W

The target of one test is T1, full length human c-Met on cells (human, UniProt P08581 25-1390).
T1 construct: whole, on cells; NCI-H441 for migration; A549 for autophosphorylation; also called human c-Met GTL-16; c-Met on NCI-H441 cells
T1 sequence (P08581 25-1390): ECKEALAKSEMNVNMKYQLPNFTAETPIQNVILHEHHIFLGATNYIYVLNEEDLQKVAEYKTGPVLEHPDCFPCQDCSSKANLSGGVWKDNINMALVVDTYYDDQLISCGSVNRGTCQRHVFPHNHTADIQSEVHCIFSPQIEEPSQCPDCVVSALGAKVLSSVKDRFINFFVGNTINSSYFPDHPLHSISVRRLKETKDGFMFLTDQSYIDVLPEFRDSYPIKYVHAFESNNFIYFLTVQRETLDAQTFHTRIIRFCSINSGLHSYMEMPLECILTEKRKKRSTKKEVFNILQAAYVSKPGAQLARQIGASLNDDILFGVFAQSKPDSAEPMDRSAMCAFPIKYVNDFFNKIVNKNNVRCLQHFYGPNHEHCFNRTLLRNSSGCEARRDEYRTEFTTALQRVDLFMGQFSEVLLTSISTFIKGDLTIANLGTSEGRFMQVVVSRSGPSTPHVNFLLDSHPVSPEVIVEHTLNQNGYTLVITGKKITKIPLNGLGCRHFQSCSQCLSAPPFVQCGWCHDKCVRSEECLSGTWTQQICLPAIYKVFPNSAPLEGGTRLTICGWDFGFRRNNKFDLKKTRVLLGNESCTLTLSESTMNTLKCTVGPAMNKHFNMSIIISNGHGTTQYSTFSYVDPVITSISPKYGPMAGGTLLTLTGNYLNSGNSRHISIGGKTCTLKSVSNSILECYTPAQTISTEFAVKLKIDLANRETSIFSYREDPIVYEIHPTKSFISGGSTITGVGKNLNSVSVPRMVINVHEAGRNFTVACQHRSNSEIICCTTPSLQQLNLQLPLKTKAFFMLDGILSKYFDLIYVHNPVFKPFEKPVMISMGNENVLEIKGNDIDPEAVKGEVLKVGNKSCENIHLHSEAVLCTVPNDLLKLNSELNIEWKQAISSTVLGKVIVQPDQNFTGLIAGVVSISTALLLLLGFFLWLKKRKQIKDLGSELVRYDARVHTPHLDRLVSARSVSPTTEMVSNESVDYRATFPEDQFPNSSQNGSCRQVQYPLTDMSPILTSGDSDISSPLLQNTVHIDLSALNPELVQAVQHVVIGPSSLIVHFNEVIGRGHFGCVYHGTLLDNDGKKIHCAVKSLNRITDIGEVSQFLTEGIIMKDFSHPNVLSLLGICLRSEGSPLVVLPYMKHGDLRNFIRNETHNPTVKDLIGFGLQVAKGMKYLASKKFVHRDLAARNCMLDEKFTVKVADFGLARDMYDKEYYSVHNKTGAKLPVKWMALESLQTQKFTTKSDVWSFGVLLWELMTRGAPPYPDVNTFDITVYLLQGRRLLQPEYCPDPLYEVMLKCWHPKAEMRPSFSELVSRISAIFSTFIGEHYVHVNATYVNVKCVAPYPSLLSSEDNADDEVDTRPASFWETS
Description: flow cytometry, Fab titration on GTL-16 cells. How it is done:
(§1) In order to further characterize the anti-c-Met antibodies, the affinity to full length human and cynomolgus c-Met is determined. GTL16, CHO cells overexpressing cynomolgus c-Met or rhesus 4 MBr-5 cells are washed, trypsinised, and suspended in PBS containing 3% FCS (3% FCS/PBS) at 4-C. 2-5×10⁵ cells/sample are resuspended in 140 μl of 3% FCS//PBS containing 5 μg/ml of purified anti-cMet Fabs or serial dilutions thereof. As a positive control 5 μg/ml of DO24 (mouse IgG2a), anti-human c-Met is used. The cells are incubated for 30-60 minutes at 4° C. before being pelleted by centrifugation for 2 min at 2000 rpm (716 g) at 4° C. and washed in 200 μl of in chilled 3% FCS/PBS. The cells are again pelleted by centrifugation and the PBS gently removed. Cells are resuspended in 100 μl of goat anti-human IgG (H+L) PE conjugated (Jackson Cat No. 109-116-088) diluted 1:200 in 3% FCS/0.02% NaN₃/PBS; For the positive control goat anti-mouse IgG (H+L)-PE conjugated (Jackson Cat No. 115-116-146) diluted 1:200 in 3% FCS/PBS is used. Samples are incubated in the dark for 30-60 min at 4° C. Following centrifugation and washing in 200 μl of 3% FCS/0.02%/NaN₃/PBS the cells are resuspended in 100 μl of 3% FCS/PBS and assayed using FACS-array or FACS-Calibur.
In general terms: In flow cytometry, cells or beads pass a laser one at a time.
Molecule B1 yielded a Kd of 1200 pM.

The molecule B2 registered a Kd of 5700 pM.

B3 came in with a Kd of 400 pM.

Consider B4, for which the Kd is 2600 pM.

Consider B5, for which the Kd is 500 pM.

In a further test the target is T2, rhesus c-Met on 4MBr-5 cells (rhesus).
T2 construct: whole, on cells
The test is described as follows: flow cytometry, Fab titration on rhesus 4MBr-5 cells. How it is done:
as §1
B1 displayed a Kd of 300 pM.

As for B2, the Kd turned out to be 1200 pM.

In the case of B3, the Kd is 100 pM.

B4 returned a Kd of 100 pM.

Molecule B5 gave a Kd of 100 pM.

Another test deals with T2, rhesus c-Met on 4MBr-5 cells. Description: cell-based or functional assay.
Consider B6, for which the “EC50 [nM] Inhibition of HGF driven proliferation 4MBr-5 in 10% serum” value (“EC50 [nM] Inhibition … in 10% serum” for short) was determined as 1.6 nM.

B7: the “EC50 [nM] Inhibition … in 10% serum” value came to 0.5 nM.

Regarding B8, the “EC50 [nM] Inhibition … in 10% serum” value stood at 0.13 nM.

In a further test the target is T3, recombinant human c-Met (human, UniProt P08581 25-932, limits assumed).
T3 construct: Soluble recombinant protein: immobilised on the CM5 chip in Biacore, in solution in the equilibrium titration; The precursor is cleaved into disulfide-linked alpha and beta subunits; also called Hepatocyte Growth Factor Receptor
T3 sequence (P08581 25-932 limits assumed): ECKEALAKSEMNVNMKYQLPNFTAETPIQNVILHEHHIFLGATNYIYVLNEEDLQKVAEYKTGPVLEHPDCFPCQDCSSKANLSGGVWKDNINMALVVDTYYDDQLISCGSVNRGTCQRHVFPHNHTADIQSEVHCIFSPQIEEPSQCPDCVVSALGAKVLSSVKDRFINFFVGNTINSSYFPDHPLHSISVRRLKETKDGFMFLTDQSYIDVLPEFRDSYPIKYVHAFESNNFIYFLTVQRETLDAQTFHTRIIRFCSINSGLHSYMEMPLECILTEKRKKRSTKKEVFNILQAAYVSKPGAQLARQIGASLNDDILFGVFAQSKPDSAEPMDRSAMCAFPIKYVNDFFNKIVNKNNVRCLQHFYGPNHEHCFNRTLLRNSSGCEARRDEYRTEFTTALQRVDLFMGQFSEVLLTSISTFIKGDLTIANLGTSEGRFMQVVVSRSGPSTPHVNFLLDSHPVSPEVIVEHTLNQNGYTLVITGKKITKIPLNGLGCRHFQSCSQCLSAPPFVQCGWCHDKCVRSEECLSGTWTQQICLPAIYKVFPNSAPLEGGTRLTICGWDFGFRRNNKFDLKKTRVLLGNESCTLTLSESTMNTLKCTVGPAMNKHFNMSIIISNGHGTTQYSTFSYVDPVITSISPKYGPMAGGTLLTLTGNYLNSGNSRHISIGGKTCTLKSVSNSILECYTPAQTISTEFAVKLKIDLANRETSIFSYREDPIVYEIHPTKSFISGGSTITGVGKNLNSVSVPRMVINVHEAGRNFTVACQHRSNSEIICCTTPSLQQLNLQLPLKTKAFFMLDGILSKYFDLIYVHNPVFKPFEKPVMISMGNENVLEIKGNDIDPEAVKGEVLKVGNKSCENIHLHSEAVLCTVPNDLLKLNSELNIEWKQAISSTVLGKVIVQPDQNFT
The test is described as follows: SPR (BIAcore), c-Met amine-coupled on CM5 chip, Fab 16-500 nM as analyte. How it is done: (§2) Using these clones, kinetic SPR analysis is performed on a CM5 chip (Biacore, Sweden) which had been coated with a density of ˜400 RU of either recombinant human c-Met, in 10 mM Na-acetate pH 4.5 using standard EDC-NHS amine coupling chemistry. […] PBS (136 mM NaCl, 2.7 mM KCl, 10 mM Na2HPO4 , 1.76 mM KH2PO4 pH 7.4) is used as the running buffer. The Fab preparations are applied in concentration series of 16-500 nM at a flow rate of 20 μl/min. Association phase is set to 60 s and dissociation phase to 120 s.
For orientation: In SPR one partner is held on a chip, and binding of the other changes the refractive index at the surface.
For the molecule B1, the Kd was found to be 11200 pM.

B2: the Kd worked out at 800 pM.

For B3, the Kd was found to be 1400 pM.

For B4, the Kd was found to be 1700 pM.

In the case of B5, the Kd was determined as 2600 pM.

In the next test the target is T1, full length human c-Met on cells. Description: cell-based or functional assay.
For the molecule B6, the “EC50 [nM] Inhibition of HGF driven migration NCI-H441 in 1% serum” value (from here on “EC50 [nM] Inhibition … in 1% serum”) was found to be 0.76 nM.

As for B7, the “EC50 [nM] Inhibition … in 1% serum” value was 0.73 nM.

Consider B8, for which the “EC50 [nM] Inhibition … in 1% serum” value turned out to be 1.2 nM.

Another test shares this target. The test is described as follows: cell-based or functional assay. This is another data set of the same source.
As for B6, the “EC50 [nM] Inhibition of HGF stimulated c-Met autophosphorylation in A549” value (“EC50 [nM] Inhibition … in A549” for short) was 0.166 nM.

Take B7: the “EC50 [nM] Inhibition … in A549” value is 0.419 nM.

B8: the “EC50 [nM] Inhibition … in A549” value was determined as 0.219 nM.

The next test shares this target. Description: flow cytometry, Fab on GTL-16 cells. How it is done: as §1
B2: the Kd is 4000 pM.

B3 showed a Kd of 1700 pM.

Molecule B4 displayed a Kd of 1500 pM.

The molecule B5 showed a Kd of 1700 pM.

In a further test the target is T4, cynomolgus c-Met on CHO cells (cynomolgus, UniProt A0A2K5UM36 25-1381, The natural precursor is cleaved into disulfide-linked alpha and beta subunits. It is given here as one mature chain, following the entry's CHAIN feature.).
T4 construct: also called cyno c-Met; CHO-cMet cyno
T4 sequence (A0A2K5UM36 entry or part of it limits assumed): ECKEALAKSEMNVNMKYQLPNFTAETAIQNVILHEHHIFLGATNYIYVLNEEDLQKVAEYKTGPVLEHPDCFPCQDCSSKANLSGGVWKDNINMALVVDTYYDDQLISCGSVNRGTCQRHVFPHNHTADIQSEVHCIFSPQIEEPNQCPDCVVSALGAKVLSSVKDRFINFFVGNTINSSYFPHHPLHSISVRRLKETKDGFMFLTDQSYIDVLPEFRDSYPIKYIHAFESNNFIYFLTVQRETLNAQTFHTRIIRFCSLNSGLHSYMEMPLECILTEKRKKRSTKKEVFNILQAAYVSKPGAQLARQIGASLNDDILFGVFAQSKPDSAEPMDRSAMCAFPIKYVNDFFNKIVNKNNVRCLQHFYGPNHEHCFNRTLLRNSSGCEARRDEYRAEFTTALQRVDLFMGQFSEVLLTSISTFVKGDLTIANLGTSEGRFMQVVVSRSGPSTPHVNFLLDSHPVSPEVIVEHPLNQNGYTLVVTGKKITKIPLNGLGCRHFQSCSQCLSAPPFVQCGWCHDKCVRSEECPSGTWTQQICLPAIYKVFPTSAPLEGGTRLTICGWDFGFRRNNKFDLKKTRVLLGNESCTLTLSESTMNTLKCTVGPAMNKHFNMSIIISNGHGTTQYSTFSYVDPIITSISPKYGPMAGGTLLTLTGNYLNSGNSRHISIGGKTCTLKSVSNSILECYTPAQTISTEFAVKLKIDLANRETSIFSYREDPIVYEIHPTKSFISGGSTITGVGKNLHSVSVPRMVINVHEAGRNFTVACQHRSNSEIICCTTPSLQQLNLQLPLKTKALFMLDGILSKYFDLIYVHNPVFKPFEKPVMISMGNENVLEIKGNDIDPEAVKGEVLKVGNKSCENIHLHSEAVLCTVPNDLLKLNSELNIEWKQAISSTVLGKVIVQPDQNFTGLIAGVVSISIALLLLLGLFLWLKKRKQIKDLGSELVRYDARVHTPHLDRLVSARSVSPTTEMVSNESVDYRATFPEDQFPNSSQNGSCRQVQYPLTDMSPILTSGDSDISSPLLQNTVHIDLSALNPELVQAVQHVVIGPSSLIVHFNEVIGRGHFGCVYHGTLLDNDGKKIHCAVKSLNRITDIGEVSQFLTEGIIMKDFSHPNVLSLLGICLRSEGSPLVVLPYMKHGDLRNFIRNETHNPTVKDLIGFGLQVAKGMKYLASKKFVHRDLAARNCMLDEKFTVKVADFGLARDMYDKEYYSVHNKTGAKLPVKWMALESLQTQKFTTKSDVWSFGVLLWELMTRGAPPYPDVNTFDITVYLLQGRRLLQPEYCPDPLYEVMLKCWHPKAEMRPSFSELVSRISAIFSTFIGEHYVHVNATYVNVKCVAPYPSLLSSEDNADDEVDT
Description: flow cytometry, Fab titration on CHO cells overexpressing cynomolgus c-Met. How it is done:
as §1
In turn, B1 returned a Kd of 300 pM.

Regarding B2, the Kd came out at 1100 pM.

B3 displayed a Kd of 500 pM.

The next test addresses T4, cynomolgus c-Met on CHO cells. The test is described as follows: flow cytometry, Fab on CHO-cyno c-Met cells. How it is done:
as §1
B2 gave a Kd of 1300 pM.

In turn, B3 returned a Kd of 229000 pM.

In turn, B4 gave a Kd of 12700 pM.

In turn, B5 gave a Kd of 600 pM.

The target is the same in another test. The test is described as follows: flow cytometry, Fab on CHO-cyno c-Met cells. This is another data set of the same source. How it is done:
as §1
(§3) Using the assay conditions described above, the affinities for the affinity-optimized anti-c-Met Fabs are determined in solution. Affinities are determined for antibodies with KDs below 4.6 pM to human c-Met. FACs based analysis of binding to cyno-c-Met expressed on CHO cells, as described above, is carried out.
For B9, the Kd is 0.68 pM.

Molecule B10 returned a Kd of 0.29 pM.

Consider B11, for which binding was put at a Kd of 0.3 pM.

For a further test, the target named is T3, recombinant human c-Met. Description: SPR (BIAcore), Fab on immobilised human c-Met. How it is done:
as §2
With B2, the Kd came to 800 pM.

Take B3: the Kd is 1400 pM.

Regarding B4, the Kd was 1700 pM.

With B5, the Kd came to 2600 pM.

Another test has as its target T3, recombinant human c-Met. The test is described as follows: solution equilibrium titration (SET), ECL detection (BioVeris), Fab with human c-Met in solution. How it is done:
Electrochemiluminescence (ECL) based affinity determination in solution and data evaluation are basically performed as described by Haenel et al., 2005. A constant amount of Fab is equilibrated with different concentrations (serial 3ⁿ dilutions) of human c-Met (4 nM starting concentration) in solution. Biotinylated human c-Met coupled to paramagnetic beads (M-280 Streptavidin, Dynal), and BV-Tag™ (BioVeris Europe, Witney, Oxfordshire, UK) labelled anti-human (Fab)′₂ (Dianova) is added and the mixture incubated for 30 min. Subsequently, the concentration of unbound Fab is quantified by ECL detection using the M-SERIES® 384 analyzer (BioVeris Europe).
as §3
With B9, the Kd came to 3.6 pM.

For the molecule B10, the Kd was 4.6 pM.

Take B11: the Kd was 2.1 pM.
